B1: NANOBODY CA8421 (VHH)
VHH: QVQLVESGGGLVQAGGSLRLSCAASGRTFSNYAMGWFRQAPGKEREFVAHITWTGGITYYSDSVKGRFIISRDNAKNTVNLQMNSLKAEDTAVYYCAADRVPYRFGVPSINEYDYWGQGTQVTVSS
notes: Family 26
B2: NANOBODY CA8322 (VHH)
VHH: QVQLVESEGGLVQPGGSLRLSCAASGFTFKYYYMNWVRQAPGKGLEWVSRINQLGGTSYGDSVKGRFTISRDNAKNTLYLQMNSLVPEDTAVYYCARCPAGAACKVEYDYRGQGTQVTVSS
notes: Family 16; also called CA8338 (pMESy4, E. coli)
B3: NANOBODY CA8318 (VHH)
VHH: QVQLVESGGGRVQAGDSLRLSCAASGRTFSPYAMGWFRQAPGKEREFVATINWSGDYTYYTDSVKGRFTTSRDNAKNTLYLEMNSLNAEDTAVYYCVARVGSPSSSDRAYQYWGQGTQVTVSS
notes: Family 8; also called CA8334 (pMESy4, E. coli)
B4: NANOBODY CA8315 (VHH)
VHH: QVQLVESGGGLVQAGGSLRLSCAASGRTFSNYAMGWFRQTPGKEREFVAAITWSGGATYYADSVKGRFIISRDNTKNTVYLQMNSLKPEDTAVYYCAADRKPYSYYPSDFGSWGQGTQVTVSS
notes: Family 5; also called CA8331 (pMESy4, E. coli)
B5: NANOBODY CA8312 (VHH)
VHH: QVQLVESGGGLVQAGGSKRLSCAASGRPFSNSAMGWFRQAPGKEREFVAAISWSGGNTYYADSVKGRFTISRDNAKNAVYLRMNSLEPEDTAVYYCAGDRQPYVYDLPTAQYQYDYWGQGTQVTVSS
notes: Family 1; also called CA8328 (pMESy4, E. coli)
B6: NANOBODY CA8316 (VHH)
VHH: QLQLVESGGGLVQAGGSLRLSCAASGDTFSRYVMGWFRQAPGKERTFVVGISGGGGITRYADSVKGRFTISRDNAENTLYLEMNTLNPEDTAVYYCAATPADSAFMRNLRVYDYWGQGTQVTVSS
notes: Family 7; The same nanobody subcloned in pMESy4 and purified from E. coli is CA8332
B7: NANOBODY CA8419 (VHH)
VHH: QVQLVESGGGLVQPGGSLRLSCAASGFTFSRFVMNWARQAPGKGLEWVSTINSDGDVTSYADSVKGRFTISRDNAKNTLYLQMNSLKPEDTAVYYCGKGWFLNRRDESRGQGTQVTVSS
notes: Family 24
B8: NANOBODY CA8405 (VHH)
VHH: QVQLVESGGGLVQDGGSLRLSCTASGRTFSNNAMGWFRQEPGREREFVAAIRWNGIANYADSVKGRFTISGDNAKNTVYLQMNSLKPDDTAVYYCAAAIRDGHNYYASDMRRYDYWGQGTQVTVSS
notes: Family 21; also called CA8433 (pMESy4, E. coli)
B9: NANOBODY CA8424 (VHH)
VHH: QVQLVESGGDLVQAGGSLRLSCAASGGIFIINNMGWYRQTPGNQRELVAEITRAGNSNYADSVKGRFTISRDNAKNTVYLQMNRLKPEDTAVYYCNFNVRYYGEYWGQGTQVTVSS
notes: Family 29; also called CA8444 (pMESy4, E. coli)
B10: NANOBODY CA8403 (VHH)
VHH: QVQLVESGGGLVQAGGSLRLSCAASTRTFSNYVMGWFRQAPGKEREFVSAITSSGRGTSYADSVKGRFTISRDNAKNTVFLQMNSLKPEDTAVYYCAATAADYVLRSRPSVYSYWGQGTQVTVSS
notes: Family 20; also called CA8432 (pMESy4, E. coli)
B11: NANOBODY CA8314 (VHH)
VHH: QVQLVESGGGLVQAGDSLRLSCTASERAFSRYAMGWFRQAPGKERELVAAVSWAGGTTYYGDSVKGRFTISRDNAKITVYLQMNSLKPEDTAVYYCAAEAREFSVGSYYATEYDYWGQGTQVTVSS
notes: Family 4; also called CA8330 (pMESy4, E. coli)
B12: NANOBODY CA8408 (VHH)
VHH: QVQLVESGGGLVQAGDSLRLSCAASGLIVSNYAMGWFRQAPGKEREFVAYINWNGGVTYYTNSVKGRFTISRDNAKNTVYLQMNSLKPEDTAVYYCARTSRASVTTRVADFGYWGQGTQVTVSS
notes: Family 6; also called CA8109 (pMESy4, E. coli)
B13: NANOBODY CA8418 (VHH)
VHH: QVQLVESGGGLVQAGGSLRLSCAASGRTFSNYAMGWFRQAPGKEREFVAALTWSGGNTVYRDSVKGRFIITRDNAKNAVYLQMNSLKPEDTAVYYCASDRRPYRYNIGTAEGEYNYWGQGTQVTVSS
notes: Family 23
B14: NANOBODY CA8411 (VHH)
VHH: QVQLVESGGGLVQAGGSLRLSCAASARTFSRYGAGWFRQAPGKEREFVGAITWGGGRTKYADSVKGRFTISRDNSKNTVYLQMNSLKSEDTAVYYCASSSIEFGPLEDTYDYWGQGTQVTVSS
notes: Family 3
B15: NANOBODY CA8406 (VHH)
VHH: QVQLVESGGGLVQPGGSLRLSCAASTNIFNLRSMGWYRQAPGKERELVATITTYNTNYADSVKGRFTISRDNAKKTMYLQMNSLRPEDTAVYYCNLQNRYDAMDYWGKGTQVTVSS
notes: Family 11
B16: NANOBODY CA8402 (VHH)
VHH: QVQLVESGGGLVQAGGSLRLSCAASGRTFSNYAMGWFRQAPGKEREFVAAISWSGGKTLYAESVKGRFTISRDNAKNTVYLQMNSLKPEDTAVYYCAATPADLTVVAGPPRIEMWYWGQGTQVTVSS
notes: Family 19; also called CA8431 (pMESy4, E. coli)
B17: NANOBODY CA8319 (VHH)
VHH: QVQLVESGGGLVQAGGSLRLSCEASGRTSSSYVMGWFRRVSGKEREFVAAINPTGSSTYYADSVKGRFTISRDNSKNTVYVQMNGLKPEDTAVYYCAATRRDFYIIRNSRPQFDYWGQGTQVTVSS
notes: Family 10

Assays:
[1] = target: T1, Recombinant Gαi1 (heterotrimeric G protein alpha subunit i1) (rat, UniProt P10824 1-354); assay: FACS on single yeast clone displaying the Nb; Gαi1-DYLIGHT-488
T1 construct: In the FACS screening it was labelled at random on amines with DYLIGHT-488 NHS ester; The sentence reads 'Recombinant rat RIC8A (uniprot:Q80ZG1) and Gαi1 (uniprot:P10824)'

[2] = target: T1, Recombinant Gαi1 (heterotrimeric G …); assay: FACS of yeast cells displaying the Nb, stained with 1 µM Gαi1(GDP)-DYLIGHT-488; black = clone (CA8322 per legend), grey = irrelevant Nb
[3] = target: T2, Recombinant rat RIC8A (resistance to inhibitors of cholinesterase 8A) (rat, UniProt Q80ZG1 1-491, limits assumed); assay: FACS on single yeast clone displaying the Nb; RIC8A-DYLIGHT-405
T2 construct: In the FACS screening it was labelled at random on amines with DYLIGHT-405 NHS ester
T2 sequence (looked up): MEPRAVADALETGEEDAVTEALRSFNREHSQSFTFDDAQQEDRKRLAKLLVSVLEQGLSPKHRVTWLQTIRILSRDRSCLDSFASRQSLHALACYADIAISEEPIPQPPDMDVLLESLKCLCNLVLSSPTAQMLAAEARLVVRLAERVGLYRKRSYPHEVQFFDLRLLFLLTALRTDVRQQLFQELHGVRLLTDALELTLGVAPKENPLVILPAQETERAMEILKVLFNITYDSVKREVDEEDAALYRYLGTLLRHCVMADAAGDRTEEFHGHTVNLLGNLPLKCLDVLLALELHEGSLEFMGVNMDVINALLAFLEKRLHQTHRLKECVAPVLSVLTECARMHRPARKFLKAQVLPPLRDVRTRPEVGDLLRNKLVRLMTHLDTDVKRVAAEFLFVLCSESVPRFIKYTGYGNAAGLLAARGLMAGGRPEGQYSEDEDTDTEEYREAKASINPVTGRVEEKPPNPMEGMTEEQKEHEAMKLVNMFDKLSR

[4] = target: T1, Recombinant Gαi1 (heterotrimeric G …); assay: FACS of yeast cells displaying the Nb, stained with 1 µM Gαi1(GDP)-DYLIGHT-488; black = clone (CA8316 per legend), grey = irrelevant Nb
[5] = target: T2, Recombinant rat RIC8A (resistance to …); assay: FACS of yeast cells displaying the Nb, stained with 1 µM RIC8A-DYLIGHT-405; black = clone (CA8316 per legend), grey = irrelevant Nb

T1 sequence (P10824 whole entry, one chain of several): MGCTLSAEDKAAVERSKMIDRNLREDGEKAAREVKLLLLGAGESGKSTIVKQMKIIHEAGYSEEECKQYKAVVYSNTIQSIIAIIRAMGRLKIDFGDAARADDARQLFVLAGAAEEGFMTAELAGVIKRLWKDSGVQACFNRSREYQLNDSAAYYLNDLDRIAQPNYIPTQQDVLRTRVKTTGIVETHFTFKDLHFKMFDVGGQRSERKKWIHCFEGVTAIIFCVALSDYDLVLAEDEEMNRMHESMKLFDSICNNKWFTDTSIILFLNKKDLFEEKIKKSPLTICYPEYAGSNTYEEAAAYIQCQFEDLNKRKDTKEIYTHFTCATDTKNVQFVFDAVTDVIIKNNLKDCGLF

Row | Binder | binding result [1] | binding result [3] | also measured
1 | B1 | no binding (tested: 1 µM) |  | 
2 | B2 |  |  | binding result [2]: no binding (tested: 1 µM)
3 | B3 | no binding (tested: 1 µM) | no binding (tested: 1 µM) | 
4 | B4 | no binding (tested: 1 µM) | no binding (tested: 1 µM) | 
5 | B5 | no binding (tested: 1 µM) | no binding (tested: 1 µM) | 
6 | B6 |  |  | binding result [4]: no binding (tested: 1 µM); binding result [5]: no binding (tested: 1 µM)
7 | B7 | no binding (tested: 1 µM) |  | 
8 | B8 | no binding (tested: 1 µM) | no binding (tested: 1 µM) | 
9 | B9 | no binding (tested: 1 µM) |  | 
10 | B10 | no binding (tested: 1 µM) | no binding (tested: 1 µM) | 
11 | B11 | no binding (tested: 1 µM) | no binding (tested: 1 µM) | 
12 | B12 | no binding (tested: 1 µM) |  | 
13 | B13 | no binding (tested: 1 µM) |  | 
14 | B14 | no binding (tested: 1 µM) |  | 
15 | B15 | no binding (tested: 1 µM) |  | 
16 | B16 | no binding (tested: 1 µM) | no binding (tested: 1 µM) | 
17 | B17 | no binding (tested: 1 µM) | no binding (tested: 1 µM) | 

— patent publication US20170160285A1 (VIB VZW, published 2017)
